Test results: patent US10813788B2, “Implantable therapeutic device” (ForSight Vision4, Inc., priority 2009, dated 2020)
Where “and” joins values, the source holds several entries; their conditions need not be identical. Equal entries are not always repeated.

What was measured:
[1] = amino acid side chain; cited from earlier work
[2] = Solubility of triamcinolone acetonide; details: suspension, in the buffer at 37° C. when implanted
[3] = Osmolarity of saline and commercial formulations (Table 1B, calculations); assay type: physicochemical; details: Summary of Calculations
From the text: The formulation of therapeutic agent injected into therapeutic device 100 may comprise many known formulations of therapeutic agents, and the formulation therapeutic agent comprises an osmolarity suitable for release for an extended time from device 100.
The vitreous humor of the eye comprises an osmolarity of about 290 mOsm to about 320 mOsm. Formulations of therapeutic agent having an osmolarity from about 280 mOsm to about 340 mOsm are substantially isotonic and substantially iso-osmotic with respect to the vitreous humor of the eye. Although the formulations listed in Table 1B are substantially iso-osmotic and isotonic with respect to the vitreous of the eye and suitable for injection into the therapeutic device, the formulation of the therapeutic agent injected into the therapeutic device can be hypertonic (hyper-osmotic) or hypotonic (hypo-osmotic) with respect to the tonicity and osmolarity of the vitreous. […]

[4] = Measured release of Avastin through porous frit structures, Examples 12-13; assay type: physicochemical; details: for RRI (mm): single devices; for determined RRI: reservoir 20 uL
From the text: For the analysis of data up to 130 days, the first data point is excluded from the fit because the model assumes the maximum delivery rate occurs at time zero while there is some startup time often associated with measured release profiles. The startup time may be related to the time it takes to displace all of the air in the frit. Use of different techniques to displace the air in the frit may reduce the startup time.

[5] = RRI for Avastin of porous frits characterised by gas flow, Example 17C (Table 7); assay type: physicochemical
From the text: The flow through the porous structure can be measured with a decay time of the gas pressure, for example with the flow rate across the porous structure with a pressure drop across the porous frit structure, as described herein. The flow rate and RRI can be determined based on the media grade of the material, for example as commercially available media grade material available from Mott Corp. The therapeutic agent can be measured through the porous structure, or a similar test molecule. […] Based on the teachings described herein, a person of ordinary skill in the art can conduct experiments to determine empirically the correspondence of flow rate with a gas to the release rate of the therapeutic agent.

[6] = Measured release of Avastin through porous frit structures, Examples 12-13; assay type: physicochemical
[7] = Frit #3 (0.038 x 0.029 in), reservoir 37 uL, up to 130 days

In the case of N=C(N)NCCC[C@H](N)C(=O)O [L-Arginine], the “pKa of side chain” value [1] is given as 12.0.
In the case of N[C@@H](CC(=O)O)C(=O)O [L-Aspartic Acid], the “pKa of side chain” value [1] is listed as 3.8.
For N[C@@H](CS)C(=O)O [L-Cysteine], the “pKa of side chain” value [1] is given as 8.28.
For CC1(C)O[C@@H]2C[C@H]3[C@@H]4CCC5=CC(=O)C=C[C@]5(C)[C@@]4(F)[C@@H](O)C[C@]3(C)[C@]2(C(=O)CO)O1 [triamcinolone acetonide], the solubility [2] was “approximately 19 ug/mL”.
In the case of bevacizumab [Avastin], the “Osm” value [3] is reported as 0.182 M, the “RRI (mm), Mean” value ([4]; Frit #2 (0.031 x 0.049 in), reservoir 37 uL, up to 130 days) is reported as 0.024 mm and the “RRI (mm), Mean for SS < 2” value ([4]; Frit #2, reservoir 37 uL, up to 130 days) is reported as 0.014 mm. For the same compound, the “RRI (mm)” value [4, 7] was 0.031 mm and 0.030 mm and 0.029 mm and 0.034 mm and 0.044 mm and 0.045 mm, the “RRI (mm), Mean for SS < 2” value ([4]; Frit #3, reservoir 37 uL, up to 130 days) was 0.030 mm and the “determined RRI” value ([4]; Frit #5 (0.038 x 0.029 in, media grade 0.1 um), 25 mg/mL Avastin, 37 C, FIG. 24A) was 0.03. For the same compound, the “determined RRI” value ([4]; Frit #6 (0.038 x 0.029 in, media grade 0.2 um), 25 mg/mL Avastin, 37 C, FIG. 23A) was 0.05 mm, the “RRI (mm)” value ([4]; Table 5A: 16 uL reservoir, 25 mg/mL Avastin, Frit #2 (0.031 x 0.049 in, media grade 0.2 um, 316L SS), 37 C) was 0.018 mm and 0.022 mm and the “RRI (mm)” value ([4]; Table 5A: 33 uL reservoir, 25 mg/mL Avastin, Frit #2 (0.031 x 0.049 in, media grade 0.2 um, 316L SS), 37 C) was 0.015 mm and 0.018 mm. For the same compound, the RRI ([5]; Table 7: media grade 0.1, O.D. 0.038 in, length 0.029 in) was 0.014, the RRI ([5]; Table 7: media grade 0.2, O.D. 0.031 in, length 0.049 in) was 0.019 and the RRI ([5]; Table 7: media grade 0.2, O.D. 0.038 in, length 0.029 in) was 0.034 and 0.033. The “RRI (mm), Mean” value ([6]; Frit #2 (0.031 x 0.049 in), reservoir 37 uL, up to 45 days) was 0.02 mm and 0.020 mm, the “RRI (mm), Mean for SS < 2” value ([6]; Frit #2, reservoir 37 uL, up to 45 days) was 0.014 mm and the “RRI (mm), Mean” value ([6]; Frit #3 (0.038 x 0.029 in), reservoir 37 uL, up to 45 days) was 0.034 mm. For the same compound, the “RRI (mm), Mean” value [6, 7] was 0.035 mm, the “RRI (mm)” value ([6]; Frit #3 (0.038 x 0.029 in, media grade 0.2 um), 25 mg/mL Avastin, reservoir 37 uL, 37 C, up to 45 days, single devices) was 0.027 mm and 0.034 mm and 0.033 mm and 0.044 mm and 0.030 mm and 0.043 mm and the “RRI (mm), Mean for SS < 2” value ([6]; Frit #3, reservoir 37 uL, up to 45 days) was 0.030 mm. The “release rate (RRI)” value ([6]; Frit #5, media grade 0.1, reservoir 20 uL, to about 90 days, FIG. 24A-1) was 0.038 mm and the RRI ([6]; Frit #6, reservoir 20 uL, to about 90 days, FIG. 23A-1) was 0.053 mm.
